B1: 5G9 (humanized TF8-5G9, CNTO 860) (antibody, V domains shown)
VH: QVQLVESGGGVVQPGRSLRLSCKASGFNIKDYYMHWVRQAPGKGLEWIGLIDPENGNTIYDPKFQGRFTISADNSKNTLFLQMDSLRPEDTAVYYCARDNSYYFDYWGQGTPVTVSS
VL: DIQMTQSPSSLSASVGDRVTITCKASQDIRKYLNWYQQKPGKAPKLLIYYATSLADGVPSRFSGSGSGTDYTFTISSLQPEDIATYYCLQHGESPYTFGQGTKLEIT
B2: 25A (antibody, human IgG1, V domains shown)
VH: QVQLVQSGAEVKKPGASVKVSCKASGYTFDVYGISWVRQAPGQGLEWMGWIAPYNGNTNYAQKLQGRVTMTTDTSTSTAYMELRSLRSDDTAVYYCARDAGTYSPFGYGMDVWGQGTTVTVSS
VL: DIQMTQSPSTLSASVGDRVTITCRASQSISSWLAWYQQKPGKAPKLLIYKASSLESGVPSRFSGSGSGTEFTLTISSLQPDDFATYYCQQFQSLPPFTFGGGTKVEIK
B3: 1F (antibody, human IgG1, V domains shown)
VH: EVQLLESGGGLVQPGGSLRLSCAASGFTFSDYAMGWVRQAPGKGLEWVSTISGSGGLTYYADSVKGRFTISRDNSKNTLYLQMNSLRAEDTAVYYCAKAPYGYYMDVWGKGTTVTVSS
VL: not shown
B4: 1F (antibody, human IgG1, V domains shown)
VH: B3 VH
VL: not shown
B5: TF-011 (antibody, V domains shown)
VH: EVQLLESGGGLVQPGGSLRLSCAASGFTFSNYAMSWVRQAPGKGLEWVSSISGSGDYTYYTDSVKGRFTISRDNSKNTLYLQMNSLRAEDTAVYYCARSPWGYYLDSWGQGTLVTVSS
VL: DIQMTQSPPSLSASAGDRVTITCRASQGISSRLAWYQQKPEKAPKSLIYAASSLQSGVPSRFSGSGSGTDFTLTISSLQPEDFATYYCQQYNSYPYTFGQGTKLEIK
B6: TF-011 (antibody, V domains shown)
VH: B5 VH
VL: B5 VL
B7: 39A (antibody, human IgG1, V domains shown)
VH: QVQLVQSGAEVKKPGSSVKVSCKASGGTFSSNAIGWVRQAPGQGLEWMGSIIPIIGFANYAQKFQGRVTITADESTSTAYMELSSLRSEDTAVYYCARDSGYYYGASSFGMDVWGQGTTVTVSS
VL: EIVMTQSPATLSVSPGERATLSCRASQSVSSNLAWYQQKPGQAPRLLIYGASTRATGIPARFSGSGSGTEFTLTISSLQSEDFAVYYCEQYNNLPLTFGGGTKVEIK
B8: 29E (antibody, human IgG1, V domains shown)
VH: QVQLVESGGGVVQPGRSLRLSCAASGFTFRSYGMHWVRQAPGKGLEWVAVITYDGINKYYADSVEGRFTISRDNSKNTLYLQMNSLRAEDTAVYYCARDGVYYGVYDYWGQGTLVTVSS
VL: not shown
B9: 29E (antibody, human IgG1, V domains shown)
VH: B8 VH
VL: not shown

Key:
[1] = molecular target: Relipidated TF (Tissue Factor) (UniProt P13726 33-295, limits assumed); experiment: cell-based or functional assay
[2] = molecular target: Relipidated TF (UniProt P13726 33-295, limits assumed); experiment: cell-based or functional assay

| Binder | % ETP, Ab 10 nM [1] | % Peak IIa, Ab 10 nM [1] | % Peak IIa, Ab 50 nM [1] | % Peak IIa, Ab 100 nM [1] | % ttPeak, Ab 10 nM [1] | % ttPeak, Ab 50 nM [1] | % ttPeak, Ab 100 nM [1] | ETP [nM · min], Ab 10 nM [1] | Lag Time [min], Ab 10 nM [1] | Lag Time [min], Ab 50 nM [1] | Lag Time [min], Ab 100 nM [1] | Peak IIa [nM], Ab 10 nM [1] | Peak IIa [nM], Ab 50 nM [1] | Peak IIa [nM], Ab 100 nM [1] | ttPeak [min], Ab 10 nM [1] | ttPeak [min], Ab 50 nM [1] | ttPeak [min], Ab 100 nM [1] | % Peak IIa, TGA […] min pre-incubation, 50 nM Ab [2] | also measured |
| --- | --- | --- | --- | --- | --- | --- | --- | --- | --- | --- | --- | --- | --- | --- | --- | --- | --- | --- | --- |
| B1 | 58% | 24% | 8% | 8% | 135% | 338% | 401% | 1180 nM·min | 10.4 min | 25.1 min | 29.9 min | 79 nM | 28 nM | 27 nM | 18.6 min | 34.6 min | 39.6 min |  |  |
| B2 |  | 97% | 95% | 95% | 4% | 9% | 9% | 2110 nM·min | 5 min | 5.2 min | 5.2 min | 322 nM | 317 nM | 317 nM | 8.2 min | 8.6 min | 8.6 min |  | ETP [nM · min], Ab 50 nM [1]: 2120 nM·min; ETP [nM · min], Ab 100 nM [1]: 2130 nM·min |
| B3 |  |  |  |  |  |  |  |  |  |  |  |  |  |  |  |  |  | 8% | % ETP, TGA 10 min pre-incubation, 10 nM Ab [2]: 41%; % Peak IIa, TGA […] min pre-incubation, 10 nM Ab [2]: 16%; % Peak IIa, TGA […] min pre-incubation, 100 nM Ab [2]: 7%; % ttPeak, TGA 10 min pre-incubation, 10 nM Ab [2]: 220%; % ttPeak, TGA 10 min pre-incubation, 50 nM Ab [2]: 433%; % ttPeak, TGA 10 min pre-incubation, 100 nM Ab [2]: 483%; ETP, TGA 10 min pre-incubation, 10 nM Ab [2]: 742 nM·min; Lag Time, TGA 10 min pre-incubation, 10 nM Ab [2]: 13.8 min; Lag Time, TGA 10 min pre-incubation, 50 nM Ab [2]: 26.5 min; Lag Time, TGA 10 min pre-incubation, 100 nM Ab [2]: 29.5 min; Peak IIa, TGA […] min pre-incubation, 10 nM Ab [2]: 44 nM; Peak IIa, TGA […] min pre-incubation, 50 nM Ab [2]: 23 nM; Peak IIa, TGA […] min pre-incubation, 100 nM Ab [2]: 20 nM; ttPeak, TGA 10 min pre-incubation, 10 nM Ab [2]: 22.4 min; ttPeak, TGA 10 min pre-incubation, 50 nM Ab [2]: 37.3 min; ttPeak, TGA 10 min pre-incubation, 100 nM Ab [2]: 40.8 min |
| B4 | 86% | 47% | 9% | 8% | 89% | 347% | 419% | 1740 nM·min | 8.2 min | 25.6 min | 31 min | 155 nM | 31 nM | 25 nM | 14.9 min | 35.3 min | 41 min |  |  |
| B5 |  |  |  |  |  |  |  |  |  |  |  |  |  |  |  |  |  | 10% |  |
| B6 | 85% | 47% | 12% |  | 86% | 284% | 353% | 1710 nM·min | 8 min | 21.3 min |  | 156 nM | 39 nM | 30 nM | 14.7 min | 30.3 min | 35.8 min |  |  |
| B7 | 84% | 37% | 11% | 9% | 135% | 397% | 465% | 1690 nM·min | 10.8 min | 29.8 min | 34.7 min | 122 nM | 36 nM | 29 nM | 18.6 min | 39.3 min | 44.6 min |  |  |
| B8 |  |  |  |  |  |  |  |  |  |  |  |  |  |  |  |  |  | 30% | % ETP, TGA 10 min pre-incubation, 10 nM Ab [2]: 77%; % ETP, TGA 10 min pre-incubation, 50 nM Ab [2]: 72%; % ETP, TGA 10 min pre-incubation, 100 nM Ab [2]: 66%; % Peak IIa, TGA […] min pre-incubation, 10 nM Ab [2]: 36%; % Peak IIa, TGA […] min pre-incubation, 100 nM Ab [2]: 28%; % ttPeak, TGA 10 min pre-incubation, 10 nM Ab [2]: 159%; % ttPeak, TGA 10 min pre-incubation, 50 nM Ab [2]: 237%; % ttPeak, TGA 10 min pre-incubation, 100 nM Ab [2]: 247%; ETP, TGA 10 min pre-incubation, 10 nM Ab [2]: 1410 nM·min; ETP, TGA 10 min pre-incubation, 50 nM Ab [2]: 1300 nM·min; ETP, TGA 10 min pre-incubation, 100 nM Ab [2]: 1200 nM·min; Lag Time, TGA 10 min pre-incubation, 10 nM Ab [2]: 9.4 min; Lag Time, TGA 10 min pre-incubation, 50 nM Ab [2]: 14.1 min; Lag Time, TGA 10 min pre-incubation, 100 nM Ab [2]: 14.7 min; Peak IIa, TGA […] min pre-incubation, 10 nM Ab [2]: 98 nM; Peak IIa, TGA […] min pre-incubation, 50 nM Ab [2]: 83 nM; Peak IIa, TGA […] min pre-incubation, 100 nM Ab [2]: 76 nM; ttPeak, TGA 10 min pre-incubation, 10 nM Ab [2]: 18.1 min; ttPeak, TGA 10 min pre-incubation, 50 nM Ab [2]: 23.6 min; ttPeak, TGA 10 min pre-incubation, 100 nM Ab [2]: 24.3 min |
| B9 | 95% | 71% | 29% | 24% | 48% | 186% | 232% | 1930 nM·min | 7 min | 14.1 min | 17.1 min | 235 nM | 95 nM | 81 nM | 11.7 min | 22.6 min | 26.2 min |  | % ETP, Ab 50 nM [1]: 67%; % ETP, Ab 100 nM [1]: 62%; ETP [nM · min], Ab 50 nM [1]: 1360 nM·min; ETP [nM · min], Ab 100 nM [1]: 1260 nM·min |
